Data reported in patent US20240026011A1 (published 2024).
Substitutions are numbered along the chain they refer to. Blank lines part the entries; values can stand above or below the binder they belong to.

Experiments:
[1] = target: cyno HER2 on cells (cynomolgus monkey, UniProt A0A2K5WUT7 1-1225); assay: kinetic affinity (kon/koff); Pro51 format
[2] = target: human CA9 on cells (human, UniProt Q16790 38-459); assay: affinity; Pro51 format
[3] = target: cyno CA9 on cells (cyno, UniProt A0A2K5VQG9 38-447); assay: affinity; Pro51 format
[4] = target: human HER2 on cells (human, UniProt P04626 23-1255); assay: kinetic affinity (kon/koff); Pro51 format

Chain of cyno CA9 on cells (A0A2K5VQG9 entry or part of it): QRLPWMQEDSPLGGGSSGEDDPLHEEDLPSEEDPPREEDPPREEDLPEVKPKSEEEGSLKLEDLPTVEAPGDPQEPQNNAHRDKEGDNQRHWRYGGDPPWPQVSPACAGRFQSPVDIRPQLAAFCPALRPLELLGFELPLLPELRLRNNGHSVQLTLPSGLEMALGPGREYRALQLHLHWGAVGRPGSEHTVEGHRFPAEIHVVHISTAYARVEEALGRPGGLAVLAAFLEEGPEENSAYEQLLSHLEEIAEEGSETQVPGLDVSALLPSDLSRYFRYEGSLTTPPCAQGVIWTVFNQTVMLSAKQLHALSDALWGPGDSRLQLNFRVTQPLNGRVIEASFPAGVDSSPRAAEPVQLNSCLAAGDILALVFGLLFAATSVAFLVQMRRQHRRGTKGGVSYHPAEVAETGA

B1: Pro1043 VIB1139 (bispecific antibody, V domains shown)
VH: QVQLQESGGGLVQPGGSLRLSCAASGFTFDDYAMSWIRQAPGKEMEWVSGINWSGTHTRYADSVKGRFTISRDNAKNTLDLQMNSLISEDTAVYYCARGFAADSRSTRGQGTQVTVSS
Kd [1]: 6.7 nM

B3: Pro1044 VIB1156 (bispecific antibody, V domains shown)
VH: QVQLQESGGGLVQAGGSLKVSCAASRNIGSNYAVGWFRQAPGKEREPVAALRWTGSIIGYDDSLRGRFTISKDDAKNTVYLQMNSLKPEDTGVYYCAARILDRSSYDYWGQGTQVTVSS
Kd [1]: 9 nM

B4: Pro1045 VIB1159 (bispecific antibody, V domains shown)
VH: QVQLQESGGGLVQAGGSLRLSCATSGRTFSSLAMGWFRQAPGKERELVAGISWSGSTTYYADSVKGRFAISRDNAKNTVYLQMNSLKPEDTAVYYCAARTSSIATIGREYDYWGQGTQVTVSS
Kd [1]: 17 nM

B6: 1121 (Pro1042) (protein)
chain: QVQLQESGGGLVQAGGSLRLSCAASGFIFSDYAMTWVRQAPGKGLEWVSSINWSGTHTNYADSVKGRFTISRDNAKKTLYLQMNSLKSEDTAVYYCARGWMVVPDSTRGQGTQVTVSS
Kd [1]: 4.6 nM

B8: Pro1047 VIB1162 (bispecific antibody, V domains shown)
VH: QVQLQESGGGLVQAGGSLRLSCAASGRPFSGNAMGWFRQAPGKEREFVAAISWSGDSTYYADSVKGRFTISRDNDENTAYLQMNSLKPEDTAVYYCAATRSFYSRTYYTRPSDYNYWGPGTQVTVSS
Kd [1]: 21.2 nM

B9: 1160 (Pro1046) (antibody, V domains shown)
VH: QVQLQESGGGLVQAGGSLRLSCAASGRTFSNERLGWFRQAPGKERELVAAIRWSGVIIGYADSVRGRFTISRDNAKSTVYLQMNSLRPEDTAVYFCAADRGVYGTWDYWGQGTQVTVSS
Kd [1]: 10.8 nM

B11: 1091 (Pro1039) (protein)
chain: QVQLQESGGGLVQPGGSLRLSCAASGFTFDDYAMSWVRQAPGKGLEWVSSINWSGTHTDYADSVKGRFTISRDNAKNTLYLQMNSLKSEDSAVYYCVKGWRLTGGYYDSVQGQGTQVTVSS
Kd [1]: 8.5 nM

B12: 1092 (Pro1040) (protein)
chain: B11 chain with P14A, G16A, M34L
Kd [1]: 4.5 nM

B13: 1097 (Pro1041) (protein)
chain: B11 chain with T28I, S35T, L102H, G104D, G105N, D108A, S109G
Kd [1]: 4.3 nM

B14: 1058 (Pro1037) (protein)
chain: QVQLQESGGGLVQPGGSLRLTCAASGRAISSYAISWFRQAPGEEREFVAAINWSGTHTNYADSVKGRFTISRDNVKNTVYLQMNSLKPEDTATYFCSRGWSVFDPDYRGQGTQVTVSS
Kd [4]: 8.6 nM
Kd [1]: 9.7 nM

B15: Pro1036 VIB1055 (bispecific antibody, V domains shown)
VH: B14 chain with A23E, A24V
Kd [1]: 69.9 nM

B16: Pro1038 VIB1059 (bispecific antibody, V domains shown)
VH: B14 chain with N59D, V75A, T93V
Kd [1]: 85 nM

Now from value to binder:

Kd [1]: 7.4 nM
B2: h1139 (Pro1060) (protein)
chain: B1 VH with Q5V, L11V, Q13R, T78S, D80Y, I87R, S88A, V93L, Q113L

Kd [1]: 37 nM
B5: h1159 (Pro1062) (antibody, V domains shown)
VH: B4 VH with Q5L, A14P, A75S, V79L, K87R, P88A, Q118L

Kd [1]: 21.8 nM
B7: humanized aHER2 sdAb h1162 (VHH)
VHH: B8 VH with Q5L, A14P, D75S, E76K, A79L, K87R, P88A, Q122L

Kd [2]: 3.1 nM
Kd [3]: 4.9 nM
B10: h445 (Pro512) (antibody, V domains shown)
VH: QVQLVESGGGLVKPGGSLRLSCAASGITFNLHAMRWYRRAPGKQRELVAYISARDWTNYADSVKGRFTISRDNAKNSLYLQMNSLRAEDTAVYYCNTDLVGEDYWGRGTLVTVSS

Kd [2]: 1.6 nM
Kd [3]: 1.2 nM
B17: h476 (Pro510) (antibody, V domains shown)
VH: QVQLVESGGGLVQPGGSLRLSCAASGNIFIINVMGWYRQAPGKQRELVATITNGGRTHYADSVKGRFTISRDNSKNTLYLQMNSLRAEDTAVYYCNANHIELGDYWGQGTLVTVSS

Kd [2]: 0.7 nM
Kd [3]: 1.1 nM
B18: h456 (Pro509) (antibody, V domains shown)
VH: QVQLVESGGGLVQPGGSLRLSCAASGSALIINAMGWYRQAPGKQRELVATVTRSGRTNYADSVKGRFTISRDNSKNTLYLQMNSLRAEDTAVYYCNVALWIADGEYDYWGQGTLVTVSS
